{"source": "patent US20220185895A1", "key": {"[1]": {"target": "human NKG2A (NKG2-A/NKG2-B type II integral membrane protein) (human) (UniProt P26715)", "sequence (P26715 whole entry)": "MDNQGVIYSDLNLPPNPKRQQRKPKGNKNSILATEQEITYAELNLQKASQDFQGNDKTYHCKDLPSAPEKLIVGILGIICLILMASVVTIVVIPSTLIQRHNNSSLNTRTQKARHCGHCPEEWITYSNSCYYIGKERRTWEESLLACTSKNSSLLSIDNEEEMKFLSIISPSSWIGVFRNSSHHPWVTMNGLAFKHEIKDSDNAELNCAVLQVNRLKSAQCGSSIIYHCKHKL", "assay": "cell-based or functional assay"}, "[2]": {"target": "human CD94 (Natural killer cells antigen CD94) (human) (UniProt Q13241)", "sequence (Q13241 whole entry)": "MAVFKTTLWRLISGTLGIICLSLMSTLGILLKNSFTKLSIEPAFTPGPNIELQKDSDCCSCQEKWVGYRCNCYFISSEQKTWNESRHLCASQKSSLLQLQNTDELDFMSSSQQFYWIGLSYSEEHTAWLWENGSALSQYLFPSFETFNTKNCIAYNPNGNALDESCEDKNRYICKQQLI", "assay": "flow cytometry with APC MESF bead calibration, average over healthy donor PBMC, CD3-CD16+ NK cells"}, "[3]": {"target": "human CD94 (Natural killer cells antigen CD94) (human) (UniProt Q13241)", "assay": "flow cytometry with APC MESF bead calibration, CD94bright T-LGLL patient PBMC, CD3+CD16+ leukemic cells [Cont.]"}, "[4]": {"target": "human CD94 (Natural killer cells antigen CD94) (human) (UniProt Q13241)", "assay": "flow cytometry with APC MESF bead calibration, CD94dim T-LGLL patient PBMC, CD3-CD16+ NK cells [Cont.]"}, "[5]": {"target": "human CD94 (Natural killer cells antigen CD94) (human) (UniProt Q13241)", "assay": "flow cytometry with APC MESF bead calibration, average over healthy donor PBMC, CD3-CD56+ NK cells"}, "[6]": {"target": "human CD94 (Natural killer cells antigen CD94) (human) (UniProt Q13241)", "assay": "flow cytometry with APC MESF bead calibration, healthy donor PBL, CD3-/CD56+ NK cells"}, "[7]": {"target": "human CD94 (Natural killer cells antigen CD94) (human) (UniProt Q13241)", "assay": "flow cytometry with APC MESF bead calibration, average over healthy donor PBMC, CD3+CD8+ (CD94+) T cells"}, "[8]": {"target": "human CD94 (Natural killer cells antigen CD94) (human) (UniProt Q13241)", "assay": "flow cytometry with APC MESF bead calibration, normal liver, CD45+CD3+CD8+ T cells"}, "[9]": {"target": "human CD94 (Natural killer cells antigen CD94) (human) (UniProt Q13241)", "assay": "flow cytometry with APC MESF bead calibration, CD94bright T-LGLL patient PBMC, CD3+CD16- T lymphocytes [Cont.]"}, "[10]": {"target": "human CD94 (Natural killer cells antigen CD94) (human) (UniProt Q13241)", "assay": "flow cytometry with APC MESF bead calibration, CD94dim T-LGLL patient PBMC, CD3+CD16- T lymphocytes [Cont.]"}, "[11]": {"target": "human CD94 (Natural killer cells antigen CD94) (human) (UniProt Q13241)", "assay": "flow cytometry, CD94bright T-LGLL patient PBMC, CD3+CD16- T lymphocytes [Cont.]"}, "[12]": {"target": "human CD94 (Natural killer cells antigen CD94) (human) (UniProt Q13241)", "assay": "flow cytometry, CD94dim T-LGLL patient PBMC, CD3+CD16- T lymphocytes [Cont.]"}, "[13]": {"target": "human CD94 (Natural killer cells antigen CD94) (human) (UniProt Q13241)", "assay": "flow cytometry with APC MESF bead calibration, CD94bright T-LGLL patient PBMC, CD3-CD16+ NK cells [Cont.]"}, "[14]": {"target": "human CD94 (Natural killer cells antigen CD94) (human) (UniProt Q13241)", "assay": "flow cytometry with APC MESF bead calibration, healthy donor PBL, CD3-/CD57+ NK cells"}, "[15]": {"target": "human CD94 (Natural killer cells antigen CD94) (human) (UniProt Q13241)", "assay": "flow cytometry, healthy donor PBL, CD3+CD8+ T cells"}, "[16]": {"target": "human CD94 (Natural killer cells antigen CD94) (human) (UniProt Q13241)", "assay": "flow cytometry with APC MESF bead calibration, average over healthy donor PBMC, CD3-CD57+ NK cells"}, "[17]": {"target": "human CD94 (Natural killer cells antigen CD94) (human) (UniProt Q13241)", "assay": "flow cytometry with APC MESF bead calibration, normal liver, CD45+CD3+CD4+ T cells"}, "[18]": {"target": "human CD94 (Natural killer cells antigen CD94) (human) (UniProt Q13241)", "assay": "flow cytometry with APC MESF bead calibration, normal liver, NK cells (panel headed CD45+CD3+CD56+)"}, "[19]": {"target": "human CD94 (Natural killer cells antigen CD94) (human) (UniProt Q13241)", "assay": "flow cytometry, CLPD-NK patient PBMC, CD3+CD16+ T-LGL"}, "[20]": {"target": "human CD94 (Natural killer cells antigen CD94) (human) (UniProt Q13241)", "assay": "flow cytometry with APC MESF bead calibration, healthy donor PBL, CD3-/CD16+ NK cells"}, "[21]": {"target": "human CD94 (Natural killer cells antigen CD94) (human) (UniProt Q13241)", "assay": "flow cytometry with APC MESF bead calibration, healthy donor PBL, CD3+CD8+ T cells"}, "[22]": {"target": "human CD94 (Natural killer cells antigen CD94) (human) (UniProt Q13241)", "assay": "flow cytometry with APC MESF bead calibration, CLPD-NK patient PBMC, CD3+CD8+ T cells"}, "[23]": {"target": "human CD94 (Natural killer cells antigen CD94) (human) (UniProt Q13241)", "assay": "flow cytometry with APC MESF bead calibration, CLPD-NK patient PBMC, CD3+CD16+ T-LGL"}, "[24]": {"target": "human CD94 (Natural killer cells antigen CD94) (human) (UniProt Q13241)", "assay": "flow cytometry, normal liver, CD45+CD3+CD8+ T cells"}, "[25]": {"target": "human CD94 (Natural killer cells antigen CD94) (human) (UniProt Q13241)", "assay": "flow cytometry, normal liver, CD45+CD3+CD4+ T cells"}}}
{"substance": "anti-NKG2A Z199 fucosylated antibody", "values": [{"measurement": "ADCC assay, depletion of CD3-CD56bright NK cells in fresh healthy donor PBMCs, EC50", "setting": "[1]", "value": 40, "unit": "ng/mL"}]}
{"substance": "anti-NKG2A Z199 non-fucosylated antibody", "values": [{"measurement": "ADCC assay, depletion of CD3-CD16+ NK leukemic cells in frozen CLPD-NK patient PBMCs, EC50", "setting": "[1]", "value": 3, "unit": "ng/mL"}, {"measurement": "ADCC assay, depletion of CD3-CD56bright NK cells in fresh healthy donor PBMCs, EC50", "setting": "[1]", "value": 3, "unit": "ng/mL"}, {"measurement": "ADCC assay, potency against the fucosylated Z199 antibody", "setting": "[1]", "value": 13, "unit": "times"}]}
{"substance": "anti-CD94 antibody clone HP-3D9, APC-conjugated (BD Bioscience 559876)", "values": [{"measurement": "Antibody binding capacity (receptors per cell)", "setting": "[2]", "value": 77000}, {"measurement": "CD94 receptor number (receptors per cell)", "setting": "[3]", "value": 177000}, {"measurement": "CD94 receptor number (receptors per cell)", "setting": "[4]", "value": 14000}, {"measurement": "Antibody binding capacity (receptors per cell)", "setting": "[5]", "value": 117000}, {"measurement": "CD94 receptor number (receptors per cell)", "setting": "[6]", "value": 51000}, {"measurement": "Antibody binding capacity (receptors per cell)", "setting": "[7]", "value": 45000}, {"measurement": "CD94 receptor number (receptors per cell)", "setting": "[8]", "value": 97000}, {"measurement": "CD94 receptor number (receptors per cell)", "setting": "[9]", "value": 172000}, {"measurement": "CD94 receptor number (receptors per cell)", "setting": "[10]", "value": 33000}, {"measurement": "% positive cells", "setting": "[11]", "value": 31, "unit": "%"}, {"measurement": "% positive cells", "setting": "[12]", "value": 14, "unit": "%"}, {"measurement": "CD94 receptor number (receptors per cell)", "setting": "[13]", "value": 51000}, {"measurement": "CD94 receptor number (receptors per cell)", "setting": "[14]", "value": 39000}, {"measurement": "% positive cells", "setting": "[15]", "value": 30, "unit": "%"}, {"measurement": "Antibody binding capacity (receptors per cell)", "setting": "[16]", "value": 73000}, {"measurement": "CD94 receptor number (receptors per cell)", "setting": "[17]", "value": 55000}, {"measurement": "CD94 receptor number (receptors per cell)", "setting": "[18]", "value": 195000}, {"measurement": "% positive cells", "setting": "[19]", "value": 16, "unit": "%"}, {"measurement": "CD94 receptor number (receptors per cell)", "setting": "[20]", "value": 45000}, {"measurement": "CD94 receptor number (receptors per cell)", "setting": "[21]", "value": 28000}, {"measurement": "CD94 receptor number (receptors per cell)", "setting": "[22]", "value": 28000}, {"measurement": "CD94 receptor number (receptors per cell)", "setting": "[23]", "value": 51000}, {"measurement": "% positive cells", "setting": "[24]", "value": 25, "unit": "%"}, {"measurement": "% positive cells", "setting": "[25]", "value": 13, "unit": "%"}]}
